# B1: (ABD)2-(EEG)6-S12-(D)Pex-Cy7: Cy7-labelled model ABD-AMP conjugate, Table 8, SEQ ID NO: 158 (conjugate)
# chain: GLKEAKEKAIEELKKAGITSDYYFDLINKAKTVEGVNALKDEILKAGGGGSGGGGSGGGGSLKEAKEKAIEELKKAGITSDYYFDLINKAKTVEGVNALKDEILKAHHHHHHSPSTPPTPSPSTPPEEGEEGEEGEEGEEGEEGPLGLRSWGCGIGKFLKKAKKFGKAFVKILKKK
# modifications: Cy7 label; MISC_FEATURE - Chemically linked -(DBCO-Maleimide)-Azidoacetyl; SITE 155 MISC_FEATURE - D amino acid; MISC_FEATURE - D amino acid; SITE 176 MISC_FEATURE - linked to (Cy7)
# B2: (ABD)2-(EEG)6-S12-(D)Pex: model ABD-AMP conjugate, Table 8, SEQ ID NO: 157 (conjugate)
# chain: GLKEAKEKAIEELKKAGITSDYYFDLINKAKTVEGVNALKDEILKAGGGGSGGGGSGGGGSLKEAKEKAIEELKKAGITSDYYFDLINKAKTVEGVNALKDEILKAHHHHHHSPSTPPTPSPSTPPEEGEEGEEGEEGEEGEEGPLGLRSWGCGIGKFLKKAKKFGKAFVKILKK
# modifications: MISC_FEATURE - Chemically linked by a (DBCO-Maleimide)-Azidoacetyl; SITE 155 MISC_FEATURE - D amino acid; MISC_FEATURE - D amino acid
# Legend:
# [1] = In vivo toxicity evaluation after intravenous treatment; conditions: for H&E staining of kidney sections, pathological features / H&E staining of spleen sections, pathological features / serum alanine aminotransferase (ALT) level / serum aspartate aminotransferase (AST) level / serum blood nitrogen urea (BUN) level: 10 mg/kg AMP equivalent dose
# Description: FIG. 5. In vivo toxicity evaluation of a model ABD-AMP conjugate. (A) Treatment groups and their body conditions. (B) Serum chemistry analysis of ALT, AST, and BUN. (C) H&E staining of spleen and kidneys sections. Arrows indicate protein casts or apoptotic bodies.
# Given a favorable biodistribution profile of ABD-AMP conjugate, we next evaluated if our conjugate could improve safety profile of AMP. We performed toxicity evaluation in mice following intravenous treatments with free AMP (D)Pex or conjugate (ABD)2-(EEG)6-S12-(D)Pex at 5 and 10 mg/kg AMP equivalent doses (FIG. 5A). […] In the spleens of the (D)Pex-treated mice, patches of apoptotic lymphocytes were observed. These pathological features were not observed in mice treated with the conjugate at the equivalent AMP dose. Altogether, our conjugate formulation effectively improves safety profile of AMP following systemic administration.
# [2] = tested on: Pseudomonas aeruginosa PAO1; test: Antibacterial assay (MIC) on PAO1, conjugate with and without thrombin pre-cleavage; assay type: cell-based; conditions: for fold activity masking in term of antibacterial activity on PAO1: peptide formulated into ABD-AMP conjugate, with and without thrombin pre-cleavage (FIGS. 6A and B)
# Description: (§1) FIG. 3. In vitro evaluation of a model ABD-AMP conjugate. (A) Schematic of (ABD)2-(EEG)6-S12-(D)Pex. (B) Antibacterial assay on PAO1 treated with conjugate with and without thrombin pre-cleavage. OD600 indicates extent of bacteria viability. (C) MTS-based mammalian toxicity evaluation of L929 fibroblasts. (D) Hemolysis assay on mouse red blood cells.
# (§2) FIG. 6. Evaluation of activity masking for alternative AMPs and alternative application. Antibacterial assay on PAO1 treated with (A) (ABD)2-(EEG)6-512-POL7080 and (B) (ABD)2-(EEG)6-S12-Colistin with and without thrombin pre-cleavage. OD600 indicates extent of bacteria viability. (C) Evaluation of anticancer activity masking of (ABD)2-(EEG)6-S12-(D)Pex on HepG2 cell line by an MTS assay.
# (§3) To verify activity masking of our therapeutics, we evaluated antibacterial activity of our model ABD-AMP conjugate candidate ((ABD)2-(EEG)6-S12-(D)Pex) (FIG. 3A) with and without thrombin pre-activation on Pseudomonas aeruginosa PAO1. […] Overall, formulating AMP as an ABD-AMP conjugate provides an activity mask that can be activated with cleavage of the cleavable linker.
# To ensure broad application across different therapeutic peptides, we formulated additional AMPS (POL7080 and colistin) into ABD-AMP conjugates and evaluated the extent of activity masking. […] Given that several AMPS are widely explored for anticancer property capitalizing on higher negative charge of cancer cell membrane, we determined whether ABD-AMP conjugate formulation could be utilized in the cancer context. Cell toxicity assay of (ABD)2-(EEG)6-S12-(D)Pex was performed on human hepatocellular carcinoma cell line HepG2 (FIG. 6C).
# [3] = Description: FIG. 4. In vivo pharmacokinetic and biodistribution evaluations of a model ABD-AMP conjugate. […] (B) Pharmacokinetics of ABD-AMP-Cy7 conjugate and a free AMP-Cy7 control. (C) Experimental timeline for time-lapse biodistribution and conjugate activation evaluation in a PAO1 lung infection model. Quantification of intact and active AMP contents in (D) lungs, (E) kidneys, (F) liver, and (G) spleen at different time points. […] (I) Estimated fold change at equivalent lung exposure of active AMP content.
# To study time-lapse biodistribution and conjugate activation in an infection context, we first infected mice with PAO1 via intratracheal instillation (IT) (FIG. 4C). The conjugate or free AMP control were intravenously (IV) administered 6 h post infection. The mice were euthanized at different time points, and organs were harvested and homogenized for quantification of conjugate and released AMP contents via SDS-PAGE analysis. […] Alternatively, when estimating at the equivalent lung exposure of active AMP, our conjugate reduced exposure of active AMP to kidneys, liver, and spleen by 3.1, 9.3, and 4.2 fold, respectively (FIG. 4I).
# L929 fibroblasts = conditions: intact conjugate; MTS
# Description: as §1, §3
# mouse red blood cells = conditions: intact conjugate
# Description: as §1, §3
# [4] = tested on: human hepatocellular carcinoma cell line HepG2; test: Cell toxicity (MTS) assay on HepG2, anticancer activity masking; assay type: cell-based
# Description: as §2
# To ensure broad application across different therapeutic peptides, we formulated additional AMPS (POL7080 and colistin) into ABD-AMP conjugates and evaluated the extent of activity masking. A 64-fold activity masking was similarly observed for both peptides in term of antibacterial activity on PAO1 (FIGS. 6A and B) confirming robust activity masking of AMPS across diverse secondary structures. Given that several AMPS are widely explored for anticancer property capitalizing on higher negative charge of cancer cell membrane, we determined whether ABD-AMP conjugate formulation could be utilized in the cancer context. Cell toxicity assay of (ABD)2-(EEG)6-S12-(D)Pex was performed on human hepatocellular carcinoma cell line HepG2 (FIG. 6C). […] Altogether, ABD-AMP conjugate platform represents a generalizable platform for formulating diverse activatable therapeutic peptides for different disease applications with aberrant protease microenvironment such as microbial infection and cancer.
molecule,measurement,setting,value
"CC[C@@H](C)[C@@H](NC(=O)CN)C(=O)NCC(=O)N[C@H](CCCCN)C(=O)N[C@H](Cc1ccccc1)C(=O)N[C@H](CC(C)C)C(=O)N[C@H](CCCCN)C(=O)N[C@H](CCCCN)C(=O)N[C@H](C)C(=O)N[C@H](CCCCN)C(=O)N[C@H](CCCCN)C(=O)N[C@H](Cc1ccccc1)C(=O)NCC(=O)N[C@H](CCCCN)C(=O)N[C@H](C)C(=O)N[C@H](Cc1ccccc1)C(=O)N[C@@H](C(=O)N[C@H](CCCCN)C(=O)N[C@@H](C(=O)N[C@H](CC(C)C)C(=O)N[C@H](CCCCN)C(=O)N[C@H](CCCCN)C(N)=O)[C@H](C)CC)C(C)C [(D)Pex, GiGkflkkakkfGkafvkilkk-CONH2 (SEQ ID NO: 74)]",mice that did not survive to the end point,"[1]; 10 mg/kg, 24 h end point",3 out of 5
same,"H&E staining of kidney sections, pathological features",[1]; mice,significant damage
same,"H&E staining of spleen sections, pathological features",[1]; mice,significant damage
same,serum alanine aminotransferase (ALT) level,[1]; mice,exceeding the reference range
same,serum aspartate aminotransferase (AST) level,[1]; mice,exceeding the reference range
same,serum blood nitrogen urea (BUN) level,[1]; mice,exceeding the reference range
same,body condition (signs of distress),"[1]; mice, 10 mg/kg, observed 24 h",evident signs of distress
6-methyloctanoic acid-Dab-Thr-Dab-(Dab-Dab-(D-Leu)-Leu-Dab-Dab-Thr) (SEQ ID NO: 84) [colistin],fold activity masking in term of antibacterial activity on PAO1,[2],64 fold
Cyclo-(T-W-I-(Dab)-(Orn)-(Dab)-(Dab)-W-(Dab)-(Dab)-A-S-p-P) (SEQ ID NO: 88) [POL7080],fold activity masking in term of antibacterial activity on PAO1,[2],64 fold
B1,"fold increase in area-under-the-concentration-time curve (AUC), circulation",[3]; compared to the free (D)Pex-Cy7 control,91 fold
same,AUC fold higher active AMP delivered to the lungs,"[3]; mouse, in vivo",2.6 fold
same,"AUC fold reduction of active AMP exposure, kidneys","[3]; mouse, in vivo",1.2 fold
same,"AUC fold reduction of active AMP exposure, liver","[3]; mouse, in vivo",3.6 fold
same,"AUC fold reduction of active AMP exposure, spleen","[3]; mouse, in vivo",1.6 fold
same,"fold reduction of active AMP exposure, kidneys, at equivalent lung exposure","[3]; mouse, in vivo",3.1 fold
same,"fold reduction of active AMP exposure, liver, at equivalent lung exposure","[3]; mouse, in vivo",9.3 fold
same,"fold reduction of active AMP exposure, spleen, at equivalent lung exposure","[3]; mouse, in vivo",4.2 fold
B2,masking of mammalian toxicity on L929 fibroblasts,L929 fibroblasts,effectively mask
same,masking of hemolysis,mouse red blood cells,effectively mask
same,"cell toxicity on HepG2, after activation by target protease (Thrombin)",[4]; thrombin pre-cleaved,restored
same,"cell toxicity on HepG2, intact conjugate",[4]; without protease activation,natively inactive
same,fold higher minimum inhibitory concentration (MIC) of intact conjugate,"[2]; intact conjugate versus thrombin pre-activated, PAO1, MIC = lowest treatment concentration that fully inhibits bacteria growth",64 fold
same,"H&E staining of kidney sections, pathological features",[1]; mice,not observed
same,"H&E staining of spleen sections, pathological features",[1]; mice,not observed
same,serum alanine aminotransferase (ALT) level,[1]; mice,within the normal reference range
same,serum aspartate aminotransferase (AST) level,[1]; mice,within the normal reference range
same,serum blood nitrogen urea (BUN) level,[1]; mice,within the normal reference range
same,tolerability / body condition,"[1]; mice, 5 and 10 mg/kg AMP equivalent doses, observed 24 h",well tolerated up to the highest dose tested with no signs of distress

# — US12448418B2, “Activatable therapeutic peptides and uses thereof” (priority 2022, dated 2025)
